Assay results from patent US20150344570A1 (published 2015).

Tests used:
[1] = molecular target: T1, FcγRIIIa extracellular domain with C-terminal His tag (human, UniProt P08637 17-208); assay: SPR, binding relative to GpH7-A5/GpH7-B3/GpL16-k0 = 100
T1 construct: extracellular domain; also called 3a; FcgRIIIa
Protocol: (§1) The heterodimerized antibodies He Abs in which one of the H chains was introduced with an alteration were assayed for their binding activities to each activating FcγR and inhibitory FcγR according to the method described in Example 4. […] The activating FcγRs in FIGS. 26, 27, 28, and 29 are FcγRIa, FcγRIIa (R), FcγRIIa (H), and FcγRIIIa, respectively.
(§2) Analysis of interaction between objective antibody and the FcγR was carried out using Biacore T100 (GE Healthcare). HBS-EP+ (GE Healthcare) was used as the running buffer, and the measurement temperature was set to 25° C. Chips produced by immobilizing the antigen peptide by the amine coupling method to a Series S Sencor Chip CM5 (GE Healthcare), or alternatively, chips produced by allowing preliminarily biotinylated antigen peptides to interact with and immobilize onto a Series S Sensor Chip SA (certified) (GE Healthcare) were used. Antibodies of interest were captured onto an antigen peptide-immobilized chip, and allowed to interact to each FcγR diluted with running buffer. To regenerate and repeatedly use the chip, the antibodies captured on the chip were washed off by reacting 10 mM glycine-HCl, pH 1.5.

[2] = molecular target: T2, FcγRIIb extracellular domain with C-terminal His tag (human, UniProt P31994 43-217); assay: as above
T2 construct: extracellular domain; also called 2b; FcgRIIb
T2 sequence (looked up): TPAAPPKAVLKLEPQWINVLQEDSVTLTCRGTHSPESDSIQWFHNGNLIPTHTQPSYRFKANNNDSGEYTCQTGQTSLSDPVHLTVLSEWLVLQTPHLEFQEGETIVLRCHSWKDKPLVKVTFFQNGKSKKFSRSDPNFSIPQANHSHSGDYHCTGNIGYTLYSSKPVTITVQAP
Protocol: as §1, §2

T1 sequence (P08637 17-208): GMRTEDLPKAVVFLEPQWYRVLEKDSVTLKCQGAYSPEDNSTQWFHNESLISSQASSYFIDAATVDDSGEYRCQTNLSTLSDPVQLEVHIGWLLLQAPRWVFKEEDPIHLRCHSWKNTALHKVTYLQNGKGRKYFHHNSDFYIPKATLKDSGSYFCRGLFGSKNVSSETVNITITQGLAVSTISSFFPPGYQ

Row | Binder | He/Con_3a [1] | He/Con_2b [2]
1 | GpH7-A5/GpH7-B3 variant I336_13S/GpL16-k0 (antibody, human IgG1, kappa, also called He Ab) heavy 1: not shown heavy 2: not shown light: DIVMTQSPLSLPVTPGEPASISCQASESLVHSNRNTYLHWYLQKPGQSPQLLIYKVSNRFSGVPDRFSGSGSGTDFTLKISRVEAEDVGVYYCSQNTHVPPTFGQGTKVEIERTVAAPSVFIFPPSDEQLKSGTASVVCLLNNFYPREAKVQWKVDNALQSGNSQESVTEQDSKDSTYSLSSTLTLSKADYEKHKVYACEVTHQGLSSPVTKSFNRGEC | 102 % of control | 83.7 % of control
2 | GpH7-A5/GpH7-B3 variant I336_18N/GpL16-k0 (antibody, human IgG1, kappa, also called He Ab) heavy 1: not shown heavy 2: not shown light: DIVMTQSPLSLPVTPGEPASISCQASESLVHSNRNTYLHWYLQKPGQSPQLLIYKVSNRFSGVPDRFSGSGSGTDFTLKISRVEAEDVGVYYCSQNTHVPPTFGQGTKVEIERTVAAPSVFIFPPSDEQLKSGTASVVCLLNNFYPREAKVQWKVDNALQSGNSQESVTEQDSKDSTYSLSSTLTLSKADYEKHKVYACEVTHQGLSSPVTKSFNRGEC | 104 % of control | 97.6 % of control
3 | GpH7-A5/GpH7-B3 variant S324_09D/GpL16-k0 (antibody, human IgG1, kappa, also called He Ab) heavy 1: not shown heavy 2: not shown light: DIVMTQSPLSLPVTPGEPASISCQASESLVHSNRNTYLHWYLQKPGQSPQLLIYKVSNRFSGVPDRFSGSGSGTDFTLKISRVEAEDVGVYYCSQNTHVPPTFGQGTKVEIERTVAAPSVFIFPPSDEQLKSGTASVVCLLNNFYPREAKVQWKVDNALQSGNSQESVTEQDSKDSTYSLSSTLTLSKADYEKHKVYACEVTHQGLSSPVTKSFNRGEC | 101 % of control | 85.8 % of control
4 | GpH7-A5/GpH7-B3 variant S324_15Y/GpL16-k0 (antibody, human IgG1, kappa, also called He Ab) heavy 1: not shown heavy 2: not shown light: DIVMTQSPLSLPVTPGEPASISCQASESLVHSNRNTYLHWYLQKPGQSPQLLIYKVSNRFSGVPDRFSGSGSGTDFTLKISRVEAEDVGVYYCSQNTHVPPTFGQGTKVEIERTVAAPSVFIFPPSDEQLKSGTASVVCLLNNFYPREAKVQWKVDNALQSGNSQESVTEQDSKDSTYSLSSTLTLSKADYEKHKVYACEVTHQGLSSPVTKSFNRGEC | 101 % of control | 88.2 % of control
5 | GpH7-A5/GpH7-B3 variant S324_14T/GpL16-k0 (antibody, human IgG1, kappa, also called He Ab) heavy 1: not shown heavy 2: not shown light: DIVMTQSPLSLPVTPGEPASISCQASESLVHSNRNTYLHWYLQKPGQSPQLLIYKVSNRFSGVPDRFSGSGSGTDFTLKISRVEAEDVGVYYCSQNTHVPPTFGQGTKVEIERTVAAPSVFIFPPSDEQLKSGTASVVCLLNNFYPREAKVQWKVDNALQSGNSQESVTEQDSKDSTYSLSSTLTLSKADYEKHKVYACEVTHQGLSSPVTKSFNRGEC | 103 % of control | 88.4 % of control
6 | GpH7-A5/GpH7-B3 variant S324_16H/GpL16-k0 (antibody, human IgG1, kappa, also called He Ab) heavy 1: not shown heavy 2: not shown light: DIVMTQSPLSLPVTPGEPASISCQASESLVHSNRNTYLHWYLQKPGQSPQLLIYKVSNRFSGVPDRFSGSGSGTDFTLKISRVEAEDVGVYYCSQNTHVPPTFGQGTKVEIERTVAAPSVFIFPPSDEQLKSGTASVVCLLNNFYPREAKVQWKVDNALQSGNSQESVTEQDSKDSTYSLSSTLTLSKADYEKHKVYACEVTHQGLSSPVTKSFNRGEC | 104 % of control | 83.5 % of control
7 | GpH7-A5/GpH7-B3 variant S298_02A/GpL16-k0 (antibody, human IgG1, kappa, also called He Ab; GpH7-A5/GpH7-B3-15-02A/GpL16-k0) heavy 1: not shown heavy 2: not shown light: DIVMTQSPLSLPVTPGEPASISCQASESLVHSNRNTYLHWYLQKPGQSPQLLIYKVSNRFSGVPDRFSGSGSGTDFTLKISRVEAEDVGVYYCSQNTHVPPTFGQGTKVEIERTVAAPSVFIFPPSDEQLKSGTASVVCLLNNFYPREAKVQWKVDNALQSGNSQESVTEQDSKDSTYSLSSTLTLSKADYEKHKVYACEVTHQGLSSPVTKSFNRGEC | 160 % of control | 73.4 % of control
8 | GpH7-A5/GpH7-B3 variant K334_01G/GpL16-k0 (antibody, human IgG1, kappa, also called He Ab) heavy 1: not shown heavy 2: not shown light: DIVMTQSPLSLPVTPGEPASISCQASESLVHSNRNTYLHWYLQKPGQSPQLLIYKVSNRFSGVPDRFSGSGSGTDFTLKISRVEAEDVGVYYCSQNTHVPPTFGQGTKVEIERTVAAPSVFIFPPSDEQLKSGTASVVCLLNNFYPREAKVQWKVDNALQSGNSQESVTEQDSKDSTYSLSSTLTLSKADYEKHKVYACEVTHQGLSSPVTKSFNRGEC | 121 % of control | 92.5 % of control
9 | GpH7-A5/GpH7-B3 variant S298_03V/GpL16-k0 (antibody, human IgG1, kappa, also called He Ab) heavy 1: not shown heavy 2: not shown light: DIVMTQSPLSLPVTPGEPASISCQASESLVHSNRNTYLHWYLQKPGQSPQLLIYKVSNRFSGVPDRFSGSGSGTDFTLKISRVEAEDVGVYYCSQNTHVPPTFGQGTKVEIERTVAAPSVFIFPPSDEQLKSGTASVVCLLNNFYPREAKVQWKVDNALQSGNSQESVTEQDSKDSTYSLSSTLTLSKADYEKHKVYACEVTHQGLSSPVTKSFNRGEC | 109 % of control | 64.5 % of control
10 | GpH7-A5/GpH7-B3 variant S324_02A/GpL16-k0 (antibody, human IgG1, kappa, also called He Ab) heavy 1: not shown heavy 2: not shown light: DIVMTQSPLSLPVTPGEPASISCQASESLVHSNRNTYLHWYLQKPGQSPQLLIYKVSNRFSGVPDRFSGSGSGTDFTLKISRVEAEDVGVYYCSQNTHVPPTFGQGTKVEIERTVAAPSVFIFPPSDEQLKSGTASVVCLLNNFYPREAKVQWKVDNALQSGNSQESVTEQDSKDSTYSLSSTLTLSKADYEKHKVYACEVTHQGLSSPVTKSFNRGEC | 104 % of control | 78.3 % of control
11 | GpH7-A5/GpH7-B3 variant Q295_02A/GpL16-k0 (antibody, human IgG1, kappa, also called He Ab) heavy 1: not shown heavy 2: not shown light: DIVMTQSPLSLPVTPGEPASISCQASESLVHSNRNTYLHWYLQKPGQSPQLLIYKVSNRFSGVPDRFSGSGSGTDFTLKISRVEAEDVGVYYCSQNTHVPPTFGQGTKVEIERTVAAPSVFIFPPSDEQLKSGTASVVCLLNNFYPREAKVQWKVDNALQSGNSQESVTEQDSKDSTYSLSSTLTLSKADYEKHKVYACEVTHQGLSSPVTKSFNRGEC | 106 % of control | 79.7 % of control
12 | GpH7-A5/GpH7-B3 variant S324_20W/GpL16-k0 (antibody, human IgG1, kappa, also called He Ab) heavy 1: not shown heavy 2: not shown light: DIVMTQSPLSLPVTPGEPASISCQASESLVHSNRNTYLHWYLQKPGQSPQLLIYKVSNRFSGVPDRFSGSGSGTDFTLKISRVEAEDVGVYYCSQNTHVPPTFGQGTKVEIERTVAAPSVFIFPPSDEQLKSGTASVVCLLNNFYPREAKVQWKVDNALQSGNSQESVTEQDSKDSTYSLSSTLTLSKADYEKHKVYACEVTHQGLSSPVTKSFNRGEC | 102 % of control | 87.5 % of control
13 | GpH7-A5/GpH7-B3 variant Q295_14T/GpL16-k0 (antibody, human IgG1, kappa, also called He Ab) heavy 1: not shown heavy 2: not shown light: DIVMTQSPLSLPVTPGEPASISCQASESLVHSNRNTYLHWYLQKPGQSPQLLIYKVSNRFSGVPDRFSGSGSGTDFTLKISRVEAEDVGVYYCSQNTHVPPTFGQGTKVEIERTVAAPSVFIFPPSDEQLKSGTASVVCLLNNFYPREAKVQWKVDNALQSGNSQESVTEQDSKDSTYSLSSTLTLSKADYEKHKVYACEVTHQGLSSPVTKSFNRGEC | 115 % of control | 66.8 % of control
14 | GpH7-A5/GpH7-B3 variant K334_09D/GpL16-k0 (antibody, human IgG1, kappa, also called He Ab) heavy 1: not shown heavy 2: not shown light: DIVMTQSPLSLPVTPGEPASISCQASESLVHSNRNTYLHWYLQKPGQSPQLLIYKVSNRFSGVPDRFSGSGSGTDFTLKISRVEAEDVGVYYCSQNTHVPPTFGQGTKVEIERTVAAPSVFIFPPSDEQLKSGTASVVCLLNNFYPREAKVQWKVDNALQSGNSQESVTEQDSKDSTYSLSSTLTLSKADYEKHKVYACEVTHQGLSSPVTKSFNRGEC | 160 % of control | 94.8 % of control
15 | GpH7-A5/GpH7-B3 variant I336_14T/GpL16-k0 (antibody, human IgG1, kappa, also called He Ab) heavy 1: not shown heavy 2: not shown light: DIVMTQSPLSLPVTPGEPASISCQASESLVHSNRNTYLHWYLQKPGQSPQLLIYKVSNRFSGVPDRFSGSGSGTDFTLKISRVEAEDVGVYYCSQNTHVPPTFGQGTKVEIERTVAAPSVFIFPPSDEQLKSGTASVVCLLNNFYPREAKVQWKVDNALQSGNSQESVTEQDSKDSTYSLSSTLTLSKADYEKHKVYACEVTHQGLSSPVTKSFNRGEC | 108 % of control | 89.5 % of control
16 | GpH7-A5/GpH7-B3 variant S324_01G/GpL16-k0 (antibody, human IgG1, kappa, also called He Ab) heavy 1: not shown heavy 2: not shown light: DIVMTQSPLSLPVTPGEPASISCQASESLVHSNRNTYLHWYLQKPGQSPQLLIYKVSNRFSGVPDRFSGSGSGTDFTLKISRVEAEDVGVYYCSQNTHVPPTFGQGTKVEIERTVAAPSVFIFPPSDEQLKSGTASVVCLLNNFYPREAKVQWKVDNALQSGNSQESVTEQDSKDSTYSLSSTLTLSKADYEKHKVYACEVTHQGLSSPVTKSFNRGEC | 105 % of control | 81.1 % of control
17 | GpH7-A5/GpH7-B3 variant Q295_10E/GpL16-k0 (antibody, human IgG1, kappa, also called He Ab) heavy 1: not shown heavy 2: not shown light: DIVMTQSPLSLPVTPGEPASISCQASESLVHSNRNTYLHWYLQKPGQSPQLLIYKVSNRFSGVPDRFSGSGSGTDFTLKISRVEAEDVGVYYCSQNTHVPPTFGQGTKVEIERTVAAPSVFIFPPSDEQLKSGTASVVCLLNNFYPREAKVQWKVDNALQSGNSQESVTEQDSKDSTYSLSSTLTLSKADYEKHKVYACEVTHQGLSSPVTKSFNRGEC | 100 % of control | 94.8 % of control
18 | GpH7-A5/GpH7-B3 variant S298_14T/GpL16-k0 (antibody, human IgG1, kappa, also called He Ab) heavy 1: not shown heavy 2: not shown light: DIVMTQSPLSLPVTPGEPASISCQASESLVHSNRNTYLHWYLQKPGQSPQLLIYKVSNRFSGVPDRFSGSGSGTDFTLKISRVEAEDVGVYYCSQNTHVPPTFGQGTKVEIERTVAAPSVFIFPPSDEQLKSGTASVVCLLNNFYPREAKVQWKVDNALQSGNSQESVTEQDSKDSTYSLSSTLTLSKADYEKHKVYACEVTHQGLSSPVTKSFNRGEC | 113 % of control | 77.9 % of control
